Results on 13 sequences are retold here after US20140120578.

Assay in all cases: cell_activity
For series [1], the system named is FucT1_T01 TALEN right monomer (synthetic). The settings on record: yeast assay as pair, full target SEQ 66 (right half printed differently from Table 1), 37 C; 0.6 at 30 C.
The test system of series [2] is XylT_T03 TALEN right monomer (synthetic).
For series [3], the system named is XylT_T04 TALEN right monomer (synthetic).
Series [4] deals with FucT1_T02/FucT2_T02 TALEN right monomer (synthetic).
The subject of series [5] is FucT2_T01 TALEN right monomer (synthetic). The settings on record: yeast assay as pair, full target SEQ 67, 37 C; 0.8 at 30 C.
The subject of series [6] is XylT_T04 TALEN left monomer (synthetic).
Series [7] concerns FucT1_T01 TALEN left monomer (synthetic). The settings on record: yeast assay as pair, full target SEQ 66 (right half printed with CTAAGC there vs AATAAGC in Table 1), 37 C; 0.6 at 30 C.
Series [8] deals with FucT2_T01 TALEN left monomer (synthetic). The settings on record: yeast assay as pair, full target SEQ 67, 37 C; 0.8 at 30 C.
Series [9] deals with FucT2_T02 TALEN left monomer (synthetic). The settings on record: for activity: N. benthamiana protoplasts.
For series [10], the system named is FucT1_T02 TALEN left monomer (synthetic). The settings on record: for activity: N. benthamiana protoplasts.
The test system of series [11] is XylT_T03 TALEN left monomer (synthetic).
The subject of series [12] is FucT_T04 TALEN left monomer (synthetic). The settings on record: yeast assay as pair, targets SEQ 70 and 71 (same value), 37 C; 0.5 at 30 C.
Series [13] relates to FucT_T04 TALEN right monomer (synthetic). The settings on record: yeast assay as pair, targets SEQ 70 and 71 (same value), 37 C; 0.5 at 30 C.
The mark [14] stands for this setting: N. benthamiana protoplasts, pair, XylT1 locus, XylT2 63.9%.
Setting [15] is: yeast assay as pair, full target SEQ 65, 37 C, 0.9 at 30 C.

In series [1], “AATAAGCAATGGCGCAA (double strand) [FucT1_T01 right half-site (top strand as printed)]” displayed an activity (relative to I-SceI) of 0.8.
The sequence “ATCACTCTCTATCTCTA (double strand) [XylT_T03 right half-site (top strand as printed)]” showed an activity in [2] (N. benthamiana protoplasts, pair, XylT1 locus, XylT2 28.2%) of 34.4 % NHEJ. This sequence yielded an activity (relative to I-SceI) in series [2] (yeast assay as pair, full target SEQ 64, 37 C, 0.7 at 30 C) of 0.9.
Sequence “CTCTACTTCTCTTCCCA (double strand) [XylT_T04 right half-site (top strand as printed)]” yielded an activity in series [3] (setting [14]) of 73.8 % NHEJ. Also, the activity (relative to I-SceI) in series [3] (setting [15]) turned out to be 0.9.
For the sequence “CTCTGTTCGTTGCCCTA (double strand) [FucT_T02 right half-site (top strand as printed)]”, the activity in [4] (N. benthamiana protoplasts, pair FucT1_T02 at FucT1, 24.7% at FucT2, with FucT2_T02 left monomer 46.5/45.0%) was 39.2 % NHEJ. The activity (relative to I-SceI) in series [4] (yeast assay as pair with FucT1 or FucT2 left monomer, targets SEQ 68 and 69, 37 C, 0.7 at 30 C) came to 0.9.
Consider “GATAAACAATGGCGCAA (double strand) [FucT2_T01 right half-site (top strand as printed)]”, for which the activity (relative to I-SceI) in series [5] came to 0.9.
On to “TCTCTTCGCTCTCAACT (double strand) [XylT_T04 left half-site]”, for which the activity in series [6] (setting [14]) came out at 73.8 % NHEJ. This sequence displayed an activity (relative to I-SceI) in series [6] (setting [15]) of 0.9.
For “TGAGATCGGCGTCAAAT (double strand) [FucT1_T01 left half-site]”, the activity (relative to I-SceI) in series [7] was found to be 0.8.
In series [8], “TGAGATCGTCGTCAAAT (double strand) [FucT2_T01 left half-site]” registered an activity (relative to I-SceI) of 0.9.
Regarding “TTCAAACGCACCCAATA (double strand) [FucT1_T02 left half-site]”, the activity worked out at 46.5 % NHEJ in series [9] (pair FucT2_T02, FucT1 locus (1-bp mismatch), control 0.79%) and 39.2 % NHEJ in series [10] (pair FucT1_T02, FucT1 locus, control 0.79%). This sequence returned an activity (relative to I-SceI) in series [10] (yeast assay as pair, full target SEQ 68, 37 C, 0.7 at 30 C) of 0.9.
As for “TTCAAACGCACCCGATA (double strand) [FucT2_T02 left half-site]”, the activity in series [9] (pair FucT2_T02, FucT2 locus, control 0.14%) amounted to 45 % NHEJ; in series [10] (pair FucT1_T02, FucT2 locus (1-bp mismatch), control 0.14%), 24.7 % NHEJ. This sequence gave an activity (relative to I-SceI) in series [9] (yeast assay as pair, full target SEQ 69, 37 C, 0.7 at 30 C) of 0.9.
As for “TTCTTGTTTCTCTCTTC (double strand) [XylT_T03 left half-site]”, the activity in series [11] (N. benthamiana protoplasts, pair, XylT1 locus, XylT2 28.2%, controls 0.36/0.06%) is 34.4 % NHEJ. Besides, the activity (relative to I-SceI) in series [11] (yeast beta-galactosidase assay as pair, full target SEQ 64, 37 C, 0.7 at 30 C) worked out at 0.9.
Regarding “TTGCCTCTGTTCGTTGC (double strand) [FucT_T04 left half-site]”, in series [12], the activity (relative to I-SceI) came to 0.6.
For the sequence “TTTCTGGTTCGACTCGA (double strand) [FucT_T04 right half-site (top strand as printed)]”, the activity (relative to I-SceI) in series [13] is 0.6.
